B1: MYBL2 (parent)
chain: VKKSCWTEEEDRIICEAHKVLGNR
B2: PLD5 (parent)
chain: VTYMNMTAYNKGRLQSSFWIVDKQ

Variants of: B1
Test: protein stability index of a GFP-peptide fusion (GPS, HEK-293T) (PSI 1-6); higher = more stable
Settings: c terminus: a fixed tail appended
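Note: lentivirally expressed fusions sorted by FACS into six bins by GFP to DsRed ratio, PSI derived from sequencing read proportions per bin multiplied by bin number.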

Protein stability index of substitutions, site by site:
V1: K 3.34; Y 2.71; T 3.78; S 3.35; P 3.66; W 3.12; R 3.9; L 3.02; I 3.23; C 3.04; N 3.33; Q 3.23; H 3.69; G 3.32; A 3.19; E 3.07; F 2.87; D 3.35; M 3.32
K3: F 2.69; A 3.43; G 3.38; C 2.39; H 3.26; E 4.1; D 3.54
K2: P 3.47; E 3.19; D 4.25; Y 3.35; L 2.98; W 2.3; M 2.92; H 3.25; T 2.97; N 3.43; A 3.28; G 3.46; R 3.54; C 2.31; S 3.8; Q 3.6; I 2.89; V 2.76; F 2.86

Variants of: B2
Test: as above
Settings: c terminus: a fixed tail appended

Protein stability index, by site and new letter:
F18: Q 1.8; D 2.07; H 1.48; G 2.31; T 1.74; N 1.67; A 2.89; W 1.24; E 2.2; M 2.26; R 1.82; P 2.02; V 2.57; K 1.8; S 2.07; L 2.32; C 2.26; Y 1.8
D22: N 3.19; M 3.38; R 3.44; C 3.67; K 2.53; E 1.21; H 3.52; T 3.51; P 2.11
S17: A 2.28; G 1.73; P 2.33; M 4.26; K 2.12; D 2.15; L 1.12; N 1.49; H 1.93; T 1.43; C 2.28; R 3.71; Y 3.31
V21: N 2.82; R 1.7; H 1.28; I 2.63; G 1.53; T 2.43; Y 1.81; Q 1.89; E 1.5; D 1.96; S 1.55; C 1.38; A 2.08; F 1.43; M 1.52; L 2.21; K 2.31; P 1.85
K23: P 2.67; Y 2.52; N 3.33; I 2.33; H 2.49; R 2.17; Q 1.74; C 1.95; L 4.23; E 3.18; M 3.22; D 2.85; T 3.52; A 3.81
W19: L 2; D 2.45; T 2.18; Y 1.91; Q 2.46; I 1.76; M 1.62; V 1.65; K 1.84; R 1.91; H 2.21; F 2.04; A 1.8; C 1.49; E 2.04; S 2.29; G 2.01; P 1.98
Q24: T 2.79; A 2.28; H 2.19; N 2.11; R 2.46; D 1.85; M 3.08; I 2.52; E 1.48; P 2.67; S 2.22; K 1.24
I20: T 1.4; P 1.7; R 1.51; G 1.25; W 2.26; L 1.22; Y 2.98; N 1.91; H 2.41; D 1.33; A 1.41; Q 1.97; K 2.27; S 2.09; C 1.76; M 3.68; E 2.23
S16: Y 4.23; T 3.01; W 3.41
